Results published in the DeepSol protein solubility set.

Experiment: soluble on expression in E. coli; label from the status in PepcDB or PDB records

Sequence: MFALHRHFPNPLPSNPSISRHEQKVADHLASIIKESYYGDTSVEESEYLVQEEYGDWEPEVFEPYDCVLPDQDDVLFGEKAVSREELDKAITFYRSGKIGSRPITTMHHSYRWIRTDAHMNKLRKYEKDKKAFQENVRVRLAQLTQRLYEEVKEKLDNGVNLHDSDLMAMALEINTREMKLQNFKASQSWITRWKQSHRIVSRRVTKFVTRKCLINKDAIKKNADDFVKNARTEISNYHPSMVFNCDQTGIQKELYPARSLAFMGEKTVERLAQSKSSLTHSFTFLPMIFLDGSMGPKAFMVIAEPKGQFPPSRPIPNCPNLEVRAGYKTHIMTKQLMCDFFESCVFIPSVPKKLYIMLDSWPAFKDHTTIKNLVPNGHDVVIRNIPEHTTGMIQPLDVYWNAPWKSLIKKFTAYALRTQTDYVIAQRNNAICMVSVLYHQISAEHFRPFLQHCWKKAGYVGAANTSSTPFLTPAQYCIDHGDTVICYHTGCNHLGFIRCARCKIFPARTGKNFSHILIVENVSFPIQYFFLNIAPFILVIP
- soluble on expression in E. coli: not soluble

Sequence: MSLALVVQKYGGSSVADAERIRRVAERIVATKKQGNDVVVVVSAMGDTTDDLLDLAQQVCPAPPPRELDMLLTAGERISNALVAMAIESLGAHARSFTGSQAGVITTGTHGNAKIIDVTPGRLQTALEEGRVVLVAGFQGVSQDTKDVTTLGRGGSDTTAVAMAAALGADVCEIYTDVDGIFSADPRIVRNARKLDTVTFEEMLEMAACGAKVLMLRCVEYARRHNIPVHVRSSYSDRPGTVVVGSIKDVPMEDPILTGVAHDRSEAKVTIVGLPDIPGYAAKVFRAVARRRRQHRHGAAERLQGRGRQDRHHLHLLPQTSGPPPWKNWTRSETRSASTQLLYDDHIGKVSLIGAGMRSHPGVTATFCEALAAVGVNIELISTSEDQRSRCCAATPNWTRPWSRCMKRSGSAATRRPRCTRGRDGRWACQEGHHHHHH
- soluble on expression in E. coli: not soluble

Sequence: MTIKTTMGILAGKASHFVLSKLGRGSTLPGKIALKFDKDILDTLAKDYEIVVVTGTNGKTLTTALTVGILKEAYGEIVTNPSGANMITGITSTFLTAKRAKSGKKIAVLEIDEASLPKITEYITPSLFVFTNIFRDQMDRYGEIYTTYQMILDGAAKAPAATILANGDSPLFNSKELVNPVRFYGFDTEKHAPELTHYNTEGIVCPKCESILQYHLNTYANLGDYVCLNCDFHRPELDYKLTQLTKITNTTSEFIIDGQDYKINVGGLYNIYNALAAVSVAEFFGVVPEQIKAGFDKSRAIFGRQETFKIGDKSCTLVLIKNPVGASQALDMIKLADYPFSLSVLLNANYADGIDTSWIWDANFESILDMDIPEINAGGVRHSEIARRLRVTGYPEDKITQAEKLEDIMTLIEKQDCDHAYILATYTAMLEFRDILAQRHAVGKGMN
- soluble on expression in E. coli: not soluble

Sequence: SMFIKKIKAKANNNEINVIIEIPMNSGPIKYEFDKESGALFVDRFMQTTMSYPCNYGFIPDTLSNDGDPVDVLVVAHHPVVPGSVIKCRAIGVLMMEDESGLDEKIIAVPTSKLDITFDHIKELDDLCEMLKKRIVHFFEHYKDLEKGKWVKVTGWGDKVKAETLIKEGIDRN
- soluble on expression in E. coli: soluble

Sequence: MHHHHHHKSTKILILGAGPAGFSAAKAALGKCDDITMINSEKYLPYYRPRLNEIIAKNKSIDDILIKKNDWYEKNNIKVITSEFATSIDPNNKLVTLKSGEKIKYEKLIIASGSIANKIKVPHADEIFSLYSYDDALKIKDECKNKGKAFIIGGGILGIELAQAIIDSGTPASIGIILEYPLERQLDRDGGLFLKDKLDRLGIKIYTNSNFEEMGDLIRSSCVITAVGVKPNLDFIKDTEIASKRGILVNDHMETSIKDIYACGDVAEFYGKNPGLINIANKQGEVAGLNACGEDASYSEIIPSPILKVSGISIISCGDIENNKPSKVFRSTQEDKYIVCMLKENKIDAAAVIGDVSLGTKLKKAIDSSKSFDNISSLDAILNNL
- soluble on expression in E. coli: soluble

Sequence: APVISQISKDVVASVGDSVEFNCTVEEVGQLSVSWAKRPSESDTNSVVLSMRNILSLPDQRYNVTVTEGPKTGSAIYTFRIQNIEVSDMGPYECQVLVSATEKVTKKLSLQIKTPPVIAENTPKSTLVTEGQNLELTCHANGFPKPTISWAREHNAVMPAGGHLLAEPTLRIRSVHRMDRGGYYCIAQNGEGQPDKRLIRVEVEFRPQIAVQRPKIAQMVSHSAELECSVQGYPAPTVVWHKNGVPLQSSRHHEVANTASSSGTTTSVLRIDSVGEEDFGDYYCNATNKLGHADARLHLFQTVIPVPSLS
- soluble on expression in E. coli: soluble

Sequence: MAHHHHHHMSEKKEYINPAGLRLDGRRPQESRRMTLEFGKVLGCDGCCTVMSGLATVCASVYGPREVTNRLESKYNECIITCEVAIAAFAGEKRRAPQRRSKLSEEMSAAVLEVARSVVLLSQYPNSQIHICVEVLRQDGSDKAACINAACLALVDACVAMRDIVYAQTVGLIHAVDVVDLTTEEMRSQCPTICIAVKGHDPSSIVWMESNCRVTSEVVSRLVTVAQKSSEGVFAAALRGPLEEHAAAILKLQGNLGNGD
- soluble on expression in E. coli: not soluble

Sequence: MGSDKIHHHHHHMSKPTQYGIIGCGMMGQEHLRNIALLPDARVAAIFEPNALMQAEAAKFAPDAQFVDSVEALLAIAELDCIMIASPNFRHVEQLETLASQNPLPVLVEKPLFTTLDDLNRIEEFAAHYPAPVWVAMEYRYMPPITAFLNEADTATGGIKMLTVREHRFPFLSKVDDWNRFNAQSGGTFVEKCCHFFDLMRLALKSEPVRIMASGGQDVNHLDERYDGSVPDILDNGYVIVEFESGARAMLELCMFAEGSKYQEDVSAVGPNGKVEAFVPGPGRFWPSHLGDAPVPKLVLSPRNPKGPEERDIPVDPTILDAGDHNGSTFYQHQKFLELVRGERSTPEVSLNDGKMAVLMGLAAQMSIAENRTVEISELL
- soluble on expression in E. coli: not soluble

Sequence: MHAITNSGWVEVITGSMFSGKTEELLRRLRRAEIAGQDVAAVTPAVDDRYGEATLGSHAGRSWAATVVEPTAEGVASIPTLLNGEQVVAIDEANFFPAELVDVCQELAADGRRVVLSGTDQTFRGEPFEPVPQLMAIAEYVDKMRAICMQCGEPATRNQRLIEGEPAHYDDPTVMVGAEETYEARCRNCHVVRRELEHHHHHH
- soluble on expression in E. coli: not soluble

Sequence: YFEVNITMSSGLWSQEKVTSPYWEERIFYLLLQECSVTDKQTQKLLKVPKGSIGQYIQDRSVGHSRIPSAKGKKNQIGLKILEQPHAVLFVDEKDVVEINEKFTELLLAITNCEERFSLFKNRNRLSKGLQIDVGCPVKVQLRSGEEKFPGVVRFRGPLLAERTVSGIFFGVELLEEGRGQGFTDGVYQGKQLFQCDEDCGVFVALDKLELIEDDDTALESDYAGPGDTMQVELPPLEINSRVSLKVGETIESGTVIFCDVLPGKESLGYFVGVDMDNPIGNWDGRFDGVQLCSFACVESTILLHINDIIPESVTQERRPPKLAFMSRGVGDKGSSSHNKPKATGSTSDPGNRNRSELFYTLNGSSVDSQPQSKSKNTWYIDEVAEDPAKSLTEISTDFDRSSPPLQPPPVNSLTTENRFHSLPFSLTKMPNTNGSIGHSPLSLSAQSVMEELNTAPVQESPPLAMPPGNSHGLEVGSLAEVKENPPFYGVIRWIGQPPGLNEVLAGLELEDECAGCTDGTFRGTRYFTCALKKALFVKLKSCRPDSRFASLQPVSNQIERCNSLAFGGYLSEVVEENTPPKMEKEGLEIMIGKKKGIQGHYNSCYLDSTLFCLFAFSSVLDTVLLRPKEKNDVEYYSETQELLRTEIVNPLRIYGYVCATKIMKLRKILEKVEAASGFTSEEKDPEEFLNILFHHILRVEPLLKIRSAGQKVQDCYFYQIFMEKNEKVGVPTIQQLLEWSFINSNLKFAEAPSCLIIQMPRFGKDFKLFKKIFPSLELNITDLLEDTPRQCRICGGLAMYECRECYDDPDISAGKIKQFCKTCNTQVHLHPKRLNHKYNPVSLPKDLPDWDWRHGCIPCQNMELFAVLCIETSHYVAFVKYGKDDSAWLFFDSMADRDGGQNGFNIPQVTPCPEVGEYLKMSLEDLHSLDSRRIQGCARRLLCDAYMCMYQSPTMSLYK
- soluble on expression in E. coli: soluble

Sequence: MELSDSKVIAADRATVWAALLSPEVLKECVPGCQEMSGSPDEGFEATVVQKVGPVKATFKGGVTLSEMVAPESLTLSGEGKGGAAGFAKGAARVRLEEGADGTTILSYEVEAKVGGKLAQLGSRIIDGFARKMADQFFTRFQEVLEGPGEAESPEAEASGDAKKKGWFKRVISGLEHHHHHH
- soluble on expression in E. coli: soluble

Sequence: MNIVEEHREKCTQCGQCLSVCPRYDDLGLLDLLYGYLEGTSEIEPDSLLSCLTCGLCADACPEALGIKMLISPARQKWVSEHGLTDRQLEHHHHHH
- soluble on expression in E. coli: not soluble

Sequence: MSLRVTYRRRLSYNTTSNKKRLVKTPGGRLVVQYIKKRGQIPKCRDTGVKLHGITPARPIALRLLKRNERTVTRAYGGCLSPNAVKERITRAFLVEEQKIVNKVIKHQKD
- soluble on expression in E. coli: not soluble

Sequence: GHHHHHHAIAENLYFQSTGNAGEWCLMESDPGVFTELIKGFGCRGAQVEEIWSLEPENFEKLKPVHGLIFLFKWQPGEEPAGSVVQDSRLDTIFFAKQVINNACATQAIVSVLLNCTHQDVHLGETLSEFKEFSQSFDAAMKGLALSNSDVIRQVHNSFARQQMFEFDTKTSAKEEDAFHFVSYVPVNGRLYELDGLREGPIDLGACNQDDWISAVRPVIEKRIQKYSEGEIRFNLMAIVSDRKMIYEQKIAELQRQLAEEPMDTDQGNSMLSAIQSEVAKNQMLIEEEVQKLKRYKIENIRRKHNYLPFIMELLKTLAEHQQLIPLVEKAKEKQNAKKAQETK
- soluble on expression in E. coli: not soluble

Sequence: MGKKELKRGLVVDREAQMIGVYLFEDGKTYRGIPRGKVLKKTKIYAGDYVWGEVVDPNTFAIEEVEERKNLLIRPKVANVDRVIIVETLKMPEFNNYLLDNMLVVYEYFKVEPVIVFNKIDLLNEEEKKELERWISIYRDAGYDVLKVSAKTGEGIDELVDYLEGFICILAGPSGVGKSSILSRLTGEELRTQEVSEKTERGRHTTTGVRLIPFGKGSFVGDTPGFSKVEATMFVKPREVRNYFREFLRYQCKYPDCTHTNEPGCAVKEAVKNGEISCERYKSYLKIIKVYLEEIKELCRED
- soluble on expression in E. coli: soluble

Sequence: MATITDIAKVANVSISTVSRVLNYDPNLSVTEETKRKIFEAAETLNYTKYKTKNKNKQQEQLTPNLSVQTAPQEPSIAVVQWRSDDEELTDIYYMSIRLGAEKRAEELGYNILKVSQLEQHNLQGIDGILAIGKFTQKTLQELQQLHPNLCVIGSNFPLEEFDSVNTDFYQATEIALTHLLELGHEKIAFIGAEESENMYGFRRYKTPTTNAYLDIMQHYHLFNEDYFILKENGMLDVKTGEQLTEEALEKWGNDLPTAILAYNDAFAIGVIHTLAAHGIKVPEEISVMGINDISISQYVSPPLSSVHAFTEEMGETGINLLHKRIQMPSIPRRVLLNTELVVRQSTTSPRQK
- soluble on expression in E. coli: soluble

Sequence: MLASMTGYAAVSREIPQGSLALELRSVNNRYLDLQFRLPDELRALESEMRDFLGSGLTRGKVDCRLTFSSYSNSYRQQRLNRDLLQDLQIMSDEIKSIFPAAGDFSVAEILRWPGVLDSDHISIDDLRTPCMALLQTALQELVSARKREGEKLHNLLLERVQRMRQLVLDLLPGLPAILASFQERLLNSLKAAGLDEKDERIRQEFTLFANRVDVDEELSRLQGHLNEFEHILLAGGVVGKRLDFLTQELNREANTLASKSVAREVTRIAVEMKVLIEQLREQIQNIE
- soluble on expression in E. coli: not soluble

Sequence: MSLKRTAEEIKQEVKSLSQQALDAVKKHTHSPEGVKELLNFMSRFPERSFRNQLLIEEQFPGATACLGRAALKKEGIYIKKGEQGNKIFVRKTVKGFYEKGRGFVRETEATPEDKKRIKSGQIEVIKKPYYTIEKVFDITQTQLKPEDYPKIFPNRVFDFQLDAKGQSELQAGIQAVANNIGIQIRDMTESEEGHHHHHH
- soluble on expression in E. coli: soluble
